Values of other authors, collected in patent US20220184236A1, “NANOPARTICLE, CONTRAST AGENT FOR MAGNETIC RESONANCE IMAGING COMPRISING SAME AND ZWITTERIONIC LIGAND COMPOUND” (ASTELLAS PHARMA INC., priority 2018, published 2022).

Settings: authentic sample, stated size

B1: ovalbumin (protein, UniProt P01012 2-386, looked up)
Ovalbumin: GSIGAASMEFCFDVFKELKVHHANENIFYCPIAIMSALAMVYLGAKDSTRTQINKVVRFDKLPGFGDSIEAQCGTSVNVHSSLRDILNQITKPNDVYSFSLASRLYAEERYPILPEYLQCVKELYRGGLEPINFQTAADQARELINSWVESQTNGIIRNVLQPSSVDSQTAMVLVNAIVFKGLWEKAFKDEDTQAMPFRVTEQESKPVQMMYQIGLFRVASMASEKMKILELPFASGTMSMLVLLPDEVSGLEQLESIINFEKLTEWTSSNVMEERKIKVYLPRMKMEEKYNLTSVLMAMGITDVFSSSANLSGISSAESLKISQAVHAAHAEINEAGREVVGSAEAGVDAASVSEEFRADHPFLFCIKHIATNAVLFFGRCVSP
notes: authentic sample for SEC, particle size 6.1 nm
Question: For B1, which particle size is on record?
Answer: 6.1 nm
